# Experimental data: the supplement of paper PMC10065799, “High-throughput profiling of sequence recognition by tyrosine kinases and SH2 domains using bacterial peptide display” (eLife, 2023)
# Assays:
# [1] = molecular target: c-Src SH2; assay: SH2 binding enrichment of the phosphorylated peptide, bacterial display (enrichment ratio); higher = better substrate or ligand; peptides without Tyr show the background
# [2] = molecular target: Grb2 SH2 (UniProt P62993); assay: as above
# [3] = molecular target: SHP2-C SH2; assay: as above
# [4] = molecular target: EPHB2 (UniProt P29323); assay: phosphorylation enrichment, bacterial display (enrichment ratio); higher = better substrate or ligand; peptides without Tyr show the background
# [5] = tested on: c-Abl (mouse); assay: as above
# [6] = molecular target: EPHB1 (UniProt P54762); assay: as above
# [7] = molecular target: FGFR1 (UniProt P11362); assay: as above
# [8] = molecular target: Jak2 (UniProt O60674); assay: as above
# [9] = tested on: Fer (mouse); assay: as above
# [10] = molecular target: Hck (UniProt P08631); assay: as above
# [11] = tested on: c-Src; assay: as above
# [12] = tested on: AncSZ; assay: as above
# [13] = molecular target: FGFR3 (UniProt P22607); assay: as above
# [14] = molecular target: Fyn (UniProt P06241); assay: as above
# [15] = molecular target: Fes (UniProt P07332); assay: as above
# [16] = molecular target: MERTK (UniProt Q12866); assay: as above
# 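For SH2 binding enrichment of the phosphorylated peptide, bacterial display in this document: peptide library displayed on the E. coli surface as eCPX fusions, selected cells deep-sequenced, score is each peptide's frequency after selection divided by its frequency in the input.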
# 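For phosphorylation enrichment, bacterial display in this document: 11-residue human phosphosite peptides and single-mutation variants displayed on the E. coli surface, counted by deep sequencing, each peptide's frequency after selection divided by its frequency in the unselected input library; frequency after pTyr selection over input frequency; kinase dosed for 20-30% of maximal phosphorylation in three min.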
# Fyn, sequence (P06241 whole entry, looked up): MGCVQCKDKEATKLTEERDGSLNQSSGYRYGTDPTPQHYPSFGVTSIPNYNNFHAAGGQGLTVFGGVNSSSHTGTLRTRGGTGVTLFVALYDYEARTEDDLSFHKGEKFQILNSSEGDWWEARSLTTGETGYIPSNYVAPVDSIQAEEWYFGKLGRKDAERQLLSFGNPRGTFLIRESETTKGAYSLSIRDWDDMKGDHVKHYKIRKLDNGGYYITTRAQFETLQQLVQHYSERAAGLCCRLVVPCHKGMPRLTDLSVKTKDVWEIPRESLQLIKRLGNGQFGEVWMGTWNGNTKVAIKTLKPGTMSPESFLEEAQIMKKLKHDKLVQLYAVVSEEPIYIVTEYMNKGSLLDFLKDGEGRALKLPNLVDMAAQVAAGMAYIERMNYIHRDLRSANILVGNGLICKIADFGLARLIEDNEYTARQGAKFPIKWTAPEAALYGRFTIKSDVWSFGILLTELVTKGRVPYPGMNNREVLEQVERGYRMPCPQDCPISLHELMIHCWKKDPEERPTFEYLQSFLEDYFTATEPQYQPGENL
# Jak2, sequence (O60674 whole entry, looked up): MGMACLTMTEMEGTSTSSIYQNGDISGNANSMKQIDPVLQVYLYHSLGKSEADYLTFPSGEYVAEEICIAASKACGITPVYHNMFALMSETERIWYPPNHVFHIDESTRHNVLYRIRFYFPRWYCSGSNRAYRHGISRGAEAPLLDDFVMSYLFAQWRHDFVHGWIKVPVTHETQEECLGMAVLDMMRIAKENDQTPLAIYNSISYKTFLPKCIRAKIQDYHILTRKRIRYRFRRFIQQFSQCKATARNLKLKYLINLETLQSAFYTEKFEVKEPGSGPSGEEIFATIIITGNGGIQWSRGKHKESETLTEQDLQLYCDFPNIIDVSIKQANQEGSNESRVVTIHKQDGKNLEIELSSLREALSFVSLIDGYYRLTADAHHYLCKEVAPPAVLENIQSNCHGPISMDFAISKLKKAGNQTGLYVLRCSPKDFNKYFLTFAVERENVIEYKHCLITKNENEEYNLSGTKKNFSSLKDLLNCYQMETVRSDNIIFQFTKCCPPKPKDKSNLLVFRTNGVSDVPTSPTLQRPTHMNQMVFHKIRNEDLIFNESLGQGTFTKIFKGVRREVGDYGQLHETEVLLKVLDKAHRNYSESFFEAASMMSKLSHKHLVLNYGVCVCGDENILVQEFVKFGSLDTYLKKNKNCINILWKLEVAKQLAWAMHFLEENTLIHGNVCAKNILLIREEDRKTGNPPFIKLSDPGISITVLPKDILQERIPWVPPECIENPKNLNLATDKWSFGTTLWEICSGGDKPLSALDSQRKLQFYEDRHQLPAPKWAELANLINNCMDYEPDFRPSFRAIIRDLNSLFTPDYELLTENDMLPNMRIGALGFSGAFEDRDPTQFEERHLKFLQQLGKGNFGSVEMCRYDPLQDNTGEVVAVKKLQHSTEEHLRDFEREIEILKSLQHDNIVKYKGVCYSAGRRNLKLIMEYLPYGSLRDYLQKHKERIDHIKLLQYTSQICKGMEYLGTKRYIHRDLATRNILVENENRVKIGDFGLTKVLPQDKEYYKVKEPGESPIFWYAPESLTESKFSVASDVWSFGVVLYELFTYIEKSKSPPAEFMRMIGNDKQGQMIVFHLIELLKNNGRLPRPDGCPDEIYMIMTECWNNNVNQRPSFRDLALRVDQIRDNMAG
# FGFR1, sequence (P11362 whole entry, looked up): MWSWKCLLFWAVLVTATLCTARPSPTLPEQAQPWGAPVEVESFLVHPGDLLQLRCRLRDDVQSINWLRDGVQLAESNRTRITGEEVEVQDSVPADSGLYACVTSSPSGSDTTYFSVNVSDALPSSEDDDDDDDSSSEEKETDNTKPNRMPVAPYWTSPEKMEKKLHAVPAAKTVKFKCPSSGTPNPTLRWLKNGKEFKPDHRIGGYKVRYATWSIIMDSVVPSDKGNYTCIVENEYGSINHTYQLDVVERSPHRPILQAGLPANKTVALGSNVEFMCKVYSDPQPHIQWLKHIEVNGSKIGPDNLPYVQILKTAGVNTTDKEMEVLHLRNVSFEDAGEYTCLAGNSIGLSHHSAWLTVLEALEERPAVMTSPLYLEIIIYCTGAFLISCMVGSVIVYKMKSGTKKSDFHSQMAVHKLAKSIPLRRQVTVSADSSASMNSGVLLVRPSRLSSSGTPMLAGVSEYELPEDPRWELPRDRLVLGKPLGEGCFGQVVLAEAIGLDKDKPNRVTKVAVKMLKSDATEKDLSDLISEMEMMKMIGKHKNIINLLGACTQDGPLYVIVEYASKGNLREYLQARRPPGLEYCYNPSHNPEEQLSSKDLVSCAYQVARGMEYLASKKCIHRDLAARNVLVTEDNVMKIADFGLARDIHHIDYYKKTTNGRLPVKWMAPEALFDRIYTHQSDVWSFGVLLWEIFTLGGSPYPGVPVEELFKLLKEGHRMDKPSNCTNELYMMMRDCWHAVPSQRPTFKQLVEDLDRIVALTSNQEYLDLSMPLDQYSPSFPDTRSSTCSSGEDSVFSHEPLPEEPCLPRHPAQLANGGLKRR
# Fes, sequence (P07332 whole entry, looked up): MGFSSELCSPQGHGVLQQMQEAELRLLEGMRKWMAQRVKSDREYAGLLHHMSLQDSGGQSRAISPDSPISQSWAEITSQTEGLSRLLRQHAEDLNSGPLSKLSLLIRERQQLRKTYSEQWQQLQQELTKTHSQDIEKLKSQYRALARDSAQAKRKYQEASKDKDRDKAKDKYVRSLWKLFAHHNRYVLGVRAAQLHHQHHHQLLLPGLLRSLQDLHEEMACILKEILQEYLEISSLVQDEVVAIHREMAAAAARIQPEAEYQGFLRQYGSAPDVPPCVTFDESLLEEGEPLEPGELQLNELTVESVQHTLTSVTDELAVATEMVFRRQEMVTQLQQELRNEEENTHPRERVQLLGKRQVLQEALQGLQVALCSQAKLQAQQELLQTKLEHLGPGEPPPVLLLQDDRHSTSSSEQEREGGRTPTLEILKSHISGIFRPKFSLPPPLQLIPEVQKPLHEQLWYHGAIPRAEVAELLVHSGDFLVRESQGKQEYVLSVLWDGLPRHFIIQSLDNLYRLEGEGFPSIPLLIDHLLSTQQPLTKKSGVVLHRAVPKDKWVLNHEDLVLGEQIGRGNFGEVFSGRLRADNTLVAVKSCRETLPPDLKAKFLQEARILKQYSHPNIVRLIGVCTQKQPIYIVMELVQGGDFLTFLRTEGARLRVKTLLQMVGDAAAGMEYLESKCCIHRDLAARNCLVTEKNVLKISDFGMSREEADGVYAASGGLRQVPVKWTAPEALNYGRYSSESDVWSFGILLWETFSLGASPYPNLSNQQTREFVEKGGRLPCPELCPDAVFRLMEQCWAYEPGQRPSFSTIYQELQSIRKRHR
# FGFR3, sequence (P22607 whole entry, looked up): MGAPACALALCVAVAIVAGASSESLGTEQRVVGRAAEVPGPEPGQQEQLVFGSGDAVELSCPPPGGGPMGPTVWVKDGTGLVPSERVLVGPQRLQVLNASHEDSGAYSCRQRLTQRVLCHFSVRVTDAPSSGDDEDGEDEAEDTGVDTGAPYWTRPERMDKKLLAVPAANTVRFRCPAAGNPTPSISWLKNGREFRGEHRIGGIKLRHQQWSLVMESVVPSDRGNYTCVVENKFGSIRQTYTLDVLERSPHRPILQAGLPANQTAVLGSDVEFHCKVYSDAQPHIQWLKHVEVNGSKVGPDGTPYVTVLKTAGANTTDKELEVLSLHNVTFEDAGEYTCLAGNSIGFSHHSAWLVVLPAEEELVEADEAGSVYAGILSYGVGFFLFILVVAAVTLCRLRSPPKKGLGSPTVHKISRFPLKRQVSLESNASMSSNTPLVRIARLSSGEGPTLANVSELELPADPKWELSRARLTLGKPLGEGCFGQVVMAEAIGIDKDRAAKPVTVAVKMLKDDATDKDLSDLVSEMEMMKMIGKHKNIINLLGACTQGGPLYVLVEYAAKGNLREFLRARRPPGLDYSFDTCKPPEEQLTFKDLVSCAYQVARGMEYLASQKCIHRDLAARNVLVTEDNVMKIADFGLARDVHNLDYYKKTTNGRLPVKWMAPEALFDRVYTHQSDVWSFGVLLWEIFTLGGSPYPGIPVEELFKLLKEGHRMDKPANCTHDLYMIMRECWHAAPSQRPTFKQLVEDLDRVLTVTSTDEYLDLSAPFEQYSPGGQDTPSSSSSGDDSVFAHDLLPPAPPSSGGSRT
# EPHB1, sequence (P54762 whole entry, looked up): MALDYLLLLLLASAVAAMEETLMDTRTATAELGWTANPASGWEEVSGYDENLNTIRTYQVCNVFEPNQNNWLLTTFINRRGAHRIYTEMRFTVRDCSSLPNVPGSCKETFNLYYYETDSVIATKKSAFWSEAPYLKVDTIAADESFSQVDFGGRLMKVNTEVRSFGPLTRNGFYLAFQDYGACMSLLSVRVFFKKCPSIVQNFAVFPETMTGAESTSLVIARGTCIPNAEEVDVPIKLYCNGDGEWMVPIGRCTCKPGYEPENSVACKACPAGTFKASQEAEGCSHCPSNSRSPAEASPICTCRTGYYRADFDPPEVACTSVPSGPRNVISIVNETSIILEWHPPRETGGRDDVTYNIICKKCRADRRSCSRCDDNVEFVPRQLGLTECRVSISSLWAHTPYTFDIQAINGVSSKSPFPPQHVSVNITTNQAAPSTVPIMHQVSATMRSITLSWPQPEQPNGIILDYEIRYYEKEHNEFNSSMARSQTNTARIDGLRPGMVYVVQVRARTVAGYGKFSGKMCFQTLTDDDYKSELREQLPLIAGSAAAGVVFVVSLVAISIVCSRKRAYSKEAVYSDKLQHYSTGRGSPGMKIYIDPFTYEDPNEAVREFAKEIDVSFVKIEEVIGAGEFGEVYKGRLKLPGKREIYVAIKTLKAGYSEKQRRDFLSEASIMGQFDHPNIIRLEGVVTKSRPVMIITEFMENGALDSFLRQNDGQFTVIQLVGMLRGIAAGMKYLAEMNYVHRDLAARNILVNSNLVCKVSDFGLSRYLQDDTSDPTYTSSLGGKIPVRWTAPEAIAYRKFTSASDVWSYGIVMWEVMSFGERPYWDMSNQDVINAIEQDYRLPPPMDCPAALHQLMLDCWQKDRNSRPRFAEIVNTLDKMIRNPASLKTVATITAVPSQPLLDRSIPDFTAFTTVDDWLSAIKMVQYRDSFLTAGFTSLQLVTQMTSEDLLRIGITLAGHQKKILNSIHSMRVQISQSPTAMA
SH2 binding enrichment [1],SH2 binding enrichment [2],SH2 binding enrichment [3],Sequence,phosphorylation enrichment [4],phosphorylation enrichment [5],phosphorylation enrichment [6],phosphorylation enrichment [7],phosphorylation enrichment [8],phosphorylation enrichment [9],phosphorylation enrichment [10],phosphorylation enrichment [11],phosphorylation enrichment [12],phosphorylation enrichment [13],phosphorylation enrichment [14],phosphorylation enrichment [15],phosphorylation enrichment [16]
0.42,0.715,0.455,STLEVYRCHPP [IL21R_Y317_S318R],0.675,0.78,0.758,0.55,1.03,0.49,0.552,0.497,1.11,0.901,0.542,1.25,0.364
0.542,0.866,0.773,FADIAYNYRHR [PAH_Y166_G171R],0.44,0.511,0.391,0.427,0.533,0.436,0.341,0.429,0.624,0.435,0.27,0.687,0.398
0.323,0.66,0.734,LAAAGYDVKKN [H1-3_Y72_E75K],0.249,0.414,0.355,0.383,0.381,0.305,0.288,0.324,0.414,0.331,0.319,0.591,0.28
0.408,0.724,0.45,ISISPYPAILH [IFT80_Y588_T586S],0.401,0.557,0.428,0.341,0.765,0.418,0.377,0.358,1.01,0.547,0.343,0.961,0.354
0.636,1.16,0.845,KLGDVYVNVAF [PGK1_Y161_D164V],0.632,0.727,0.801,1.01,0.965,0.661,0.706,0.584,1.13,1.01,0.645,1.08,0.471
1.12,1.14,1.36,KKMKRYHVGKV [HARS2_Y151],0.313,0.482,0.492,0.298,0.554,0.293,0.341,0.45,0.466,0.486,0.349,0.514,0.43
0.632,1.1,0.787,REVVNYVQKRN [RMI1_Y450],0.595,0.975,0.622,0.36,0.598,0.554,0.696,0.582,0.931,0.521,0.541,1.08,0.869
0.457,0.971,0.57,KRLWDYGMSSS [F8_Y1728_E1723K],0.461,0.536,0.429,0.399,0.666,0.339,0.337,0.394,0.592,0.511,0.341,0.706,0.359
0.392,0.726,0.799,NAPNSYGRRPI [CDKN2A_Y44],1.21,0.885,0.581,0.692,0.76,1.2,0.757,0.75,1.23,0.81,0.678,0.952,0.713
0.692,1.22,1.03,EMTAEYACTRK [ACAD9_Y325],0.492,0.603,0.406,0.397,0.499,0.497,0.627,0.412,0.703,0.551,0.434,0.706,0.457
0.879,1.1,1.05,KRLAVYQAGAR [APOE_Y180],0.399,0.398,0.316,0.403,0.464,0.333,0.335,0.378,0.495,0.365,0.405,0.504,0.346
0.581,0.956,0.902,SVVVPHEPPEV [TP53_Y220_Y220H],0.46,0.703,0.51,0.53,0.755,0.538,0.46,0.396,0.763,0.696,0.466,0.949,0.41
0.625,0.82,0.554,ADFFDYGRGLS [KHDRBS3_Y304_H306R_YF],0.522,0.59,0.426,0.414,0.798,0.4,0.421,0.521,0.808,0.702,0.518,0.746,0.369
0.527,0.822,0.286,RRLEPYGENFN [APOA4_Y310_V307L],0.317,0.371,0.398,0.266,0.681,0.315,0.25,0.463,1.04,0.493,0.281,0.732,0.385
1.03,1.23,1.37,FLAVGYHKTHI [IDS_Y225_P228T],0.484,0.638,0.548,0.429,0.971,0.447,0.469,0.4,0.784,0.649,0.477,0.946,0.441
0.915,1.23,1.4,GMTLSYLFREP [NDUFS8_Y74],0.579,0.652,0.501,0.606,0.848,0.367,0.509,0.505,0.763,0.633,0.397,0.877,0.365
2.15,1.03,1.67,QGIYGYHHYMQ [UFSP2_Y287],8.11,5.12,3.8,1.32,1.36,13.8,8.27,8.3,1.6,1.52,10.6,1.31,10.4
3.9,1.12,0.761,KLPFPYDDPFS [GPX2_Y127_YF],0.773,1.16,0.587,0.63,0.9,0.772,0.663,0.831,1.05,0.755,0.545,1.11,0.525
2.04,1.22,12.4,ISKKHYAGLLF [POLD1_Y809_R808H],0.381,0.521,0.317,0.468,0.636,0.469,0.46,0.436,0.545,0.643,0.42,0.671,0.456
0.749,0.901,0.531,HNELFYEAAEH [VANGL1_Y345_E347A_YF],0.842,1.47,0.586,0.826,0.944,9.73,1.51,1.89,1.85,0.884,1.05,1.55,1.46
0.696,1,1.1,TQPSPYAVFRF [RPGRIP1_Y823_YF],0.922,24.8,2.6,0.893,0.824,9.31,8.6,7.72,0.952,0.8,10.7,0.805,9.69
0.413,0.897,0.602,IVRSRYEDLED [VHL_Y185_L184R],0.759,0.968,0.675,0.664,0.964,0.619,0.651,0.585,1.37,0.704,0.693,0.946,0.788
0.444,0.767,0.609,CTNPRYLAAGS [RABL3_Y185],0.486,0.787,0.496,0.507,0.915,0.629,0.357,0.467,0.794,0.646,0.426,0.767,0.415
2.5,0.893,6.85,DVFRQYASLTG [GANAB_Y379],0.44,0.573,0.422,0.395,0.589,0.417,0.448,0.402,0.568,0.428,0.379,0.709,0.406
0.411,0.793,0.691,DLGIQYKVLKP [CTNNA1_Y177_A179V],0.624,0.759,0.462,0.481,1.12,0.417,0.548,0.521,1.1,0.692,0.46,1.28,0.413
0.423,0.776,0.639,SIGLGYHKDLQ [NF1_Y1169],0.629,0.487,0.34,0.414,0.548,0.368,0.424,0.458,0.528,0.486,0.427,0.536,0.381
0.489,0.849,0.635,VDEVLYEDSST [MTHFS_Y197],0.671,0.785,0.666,0.742,1.18,2.56,0.646,0.615,1.53,0.886,0.571,1.34,0.492
0.55,1.01,0.684,NQILPYIKELV [PPP2R1B_Y341],0.611,0.72,0.509,0.579,1.08,0.528,0.52,0.477,1.01,0.774,0.43,1.14,0.456

Sequence,SH2 binding enrichment [1],SH2 binding enrichment [2],SH2 binding enrichment [3],phosphorylation enrichment [4],phosphorylation enrichment [5],phosphorylation enrichment [6],phosphorylation enrichment [7],phosphorylation enrichment [8],phosphorylation enrichment [9],phosphorylation enrichment [10],phosphorylation enrichment [11],phosphorylation enrichment [12],phosphorylation enrichment [13],phosphorylation enrichment [14],phosphorylation enrichment [15],phosphorylation enrichment [16]
KSEKVYTRHGV [FLOT1_Y56],0.579,0.866,0.824,0.339,0.401,0.354,0.439,0.444,0.417,0.346,0.34,0.502,0.341,0.254,0.527,0.427
